Data on 1 substance can be found in paper PMC4476745.

For the experiment, the target named is PAR-5 (UniProt P41932). Description: IP anti-GFP, blot anti-PAR-5. The following applies: reference: wild type ATGL-1::GFP; sites S303.

For the substance “ATGL-1 (from UniProt Q11186) ATGL-1(S303A)::GFP”, the “binding against the reference” value is “weaker”.
